Assay [1] deals with SJL/J mice. In words: Trafficking of transferred PLP139-151 sensitized cells into the CNS (flow cytometry). It is filed as in vivo, mouse. The procedure: PLP139-151 sensitized cells were generated as described in Materials and Methods (cell counts in the reactivation culture are presented in Table 2) and labeled with PBSE (4 uM) before transfer to naïve mice. In study “Cgen data” (FIG. 12), disease was induced in recipient mice (n=10 per group) by i.v. transfer of 5×10^6 blast cells to each recipient mouse. A relatively large number of transferred cells were used in order to allow detection of the transferred cells by flow cytometry analysis at the end of the study. Mice were split into Control Ig and C1ORF32 ECD-Fc (SEQ ID NO:42) treatment groups, receiving 100 ug/dose intraperitoneal injection three times per week for 2 weeks. On Day +14 after cell transfer, 5 representative mice from each group were selected for analysis of trafficking of transferred cells into the CNS. Spleens, cervical lymph nodes, and CNS were collected, and the number of PBSE- or PBSE+/CD45+/CD3+/CD4+ T cells was analyzed by flow cytometric analysis.
An additional experiment (designated “MYC48 FACS”, FIG. 13) was performed using an alternative staining follow-up approach. SJL-Actin/GFP mice were primed with PLP139-151/CFA, and sensitized blast cells were generated as described in Materials and Methods (cell counts in the reactivation culture are presented in Table 2). On Day +3 of culture, PLP139-151 sensitized cells were collected and labeled with PBSE (4 uM). Disease was induced in the recipient mice (n=10 per group), by i.v. transfer of 5×10^6 blast cells/mouse. Beginning at the time of cell transfer, mice were treated with Control Ig or C1ORF32 ECD-Fc (SEQ ID NO:42) (100 ug/dose i.p. three times per week for 2 weeks). […] To evaluate C1ORF32 ECD-Fc (SEQ ID NO:42) effect on immune cell trafficking to the CNS, spleens, cervical lymph nodes, and CNS cells collected form 5 mice on day +10 post cell transfer, and the number of transferred CD45hi PBSE+ or GFP+ cells was analyzed by flow cytometry. […]
(In general: Flow cytometry measures light scatter and fluorescence of single cells or particles in a stream.)

Assay [2] deals with total splenocytes and lymph node cells. In words: Ex vivo recall responses in adoptive transfer R-EAE. The assay is classed as cell-based, mouse. How it is done: On day 45 (unless otherwise indicated) following cell transfer, spleen and cervical lymph nodes or CNS from 3 representative mice of each group were collected, and the total cells were activated ex vivo at 0.5×10^6 cells per well with either OVA323-339, PLP139-151, PLP178-191, MBP84-104 (20 ug/ml), or anti-CD3 (1 ug/ml). Two sets of cultures were set up side-by-side. One set was pulsed with 1 uCi of tritiated thymidine at 24 hours and harvested at 72 hours to determine cell proliferation. In the second set of cultures, supernatants were collected at 72 hours and tested for peptide-specific cytokine production as determined by LiquiChip.

B1: C1ORF32 ECD-Fc (SEQ ID NO:42): fusion protein of human C1ORF32 ECD fused to mouse immunoglobulin Fc (human-mouse fusion protein) (protein)
chain: LQVTVPDKKKVAMLFQPTVLRCHFSTSSHQPAVVQWKFKSYCQDRMGESLGMSSTRAQSLSKRNLEWDPYLDCLDSRRTVRVVASKQGSTVTLGDFYRGREITIVHDADLQIGKLMWGDSGLYYCIITTPDDLEGKNEDSVELLVLGRTGLLADLLPSFAVEIMGSENLYFQGSGEPRGPTIKPCPPCKCPAPNLLGGPSVFIFPPKIKDVLMISLSPIVTCVVVDVSEDDPDVQISWFVNNVEVHTAQTQTHREDYNSTLRVVSALPIQHQDWMSGKEFKCKVNNKDLPAPIERTISKPKGSVRAPQVYVLPPPEEEMTKKQVTLTCMVTDFMPEDIYVEWTNNGKTELNYKNTEPVLDSDGSYFMYSKLRVEKKNWVERNSYSCSVVHEGLHNHHTTKSFSRTPGK
modifications: Fusion protein human C1ORF32-ECD fused to mouse IgG2a Fc
As to B1, the “number of transferred CD4+ T cells within the CNS” value in assay [1] (study Cgen data, treatment from time of cell transfer) is “decrease”. In addition, in assay [1] (study MYC48 FACS, day +10), the “number of total or activated transferred T cells in the spleen and cervical lymph nodes” value is reported as “No change”. Also, the “number of GFP+ and PBSE+ transferred cells in the CNS” value in assay [1] (study MYC48 FACS, day +10 post cell transfer) is recorded as “decrease”. Besides, in assay [2] (day 10, treatment from time of cell transfer), the “recall responses of CNS cells to PLP139-151 and anti CD3” value is on record as “abolished”. In assay [2] (day 45, activation with PLP139-151 and PLP178-191), the GM-CSF secretion result is “inhibition of GM-CSF secretion”. The “IFN-gamma and IL-17 secretion” value in assay [2] (day 45, activation with anti-CD3, PLP139-151, and PLP178-191) is “inhibition”. For the same molecule, the “splenocyte secretion of IL-4 and IL-10” value in assay [2] (day 45, in response to PLP139-151) was “increased splenocyte secretion”. The “recall responses: cellular proliferation of splenocytes and lymph node cells” value in assay [2] (day 45, treatment from onset of remission) is on record as “decreased level of cellular proliferation”.

Values taken from patent publication US20170275344A1, “POLYPEPTIDES AND USES THEREOF AS A DRUG FOR TREATMENT OF AUTOIMMUNE DISORDERS” (Compugen Ltd., priority 2014, published 2017).
